Source: the supplement of paper PMC11136658

Tested on: peptide library, one residue held at a place counted from the Y acceptor
Assay: relative phosphorylation of the sub-library (ratio to the mean residue at this position); higher = residue favoured
Method in brief: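 In 384-well plates, purified recombinant kinases were incubated for 90 min with 50 μM ATP containing γ-32P-ATP and biotinylated Tyr-centred peptide libraries, each mixture fixing one residue at a single position between −5 and +5. After capture on streptavidin membranes and rinsing, peptides were quantified by phosphorimaging with ImageQuant. Per-position intensities were scaled to the sum of the 18 (Ser/Thr-free library: 16) randomized residues, then multiplied by that number.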

Chain of YES1, construct: Full length, human (P07947 whole entry, looked up): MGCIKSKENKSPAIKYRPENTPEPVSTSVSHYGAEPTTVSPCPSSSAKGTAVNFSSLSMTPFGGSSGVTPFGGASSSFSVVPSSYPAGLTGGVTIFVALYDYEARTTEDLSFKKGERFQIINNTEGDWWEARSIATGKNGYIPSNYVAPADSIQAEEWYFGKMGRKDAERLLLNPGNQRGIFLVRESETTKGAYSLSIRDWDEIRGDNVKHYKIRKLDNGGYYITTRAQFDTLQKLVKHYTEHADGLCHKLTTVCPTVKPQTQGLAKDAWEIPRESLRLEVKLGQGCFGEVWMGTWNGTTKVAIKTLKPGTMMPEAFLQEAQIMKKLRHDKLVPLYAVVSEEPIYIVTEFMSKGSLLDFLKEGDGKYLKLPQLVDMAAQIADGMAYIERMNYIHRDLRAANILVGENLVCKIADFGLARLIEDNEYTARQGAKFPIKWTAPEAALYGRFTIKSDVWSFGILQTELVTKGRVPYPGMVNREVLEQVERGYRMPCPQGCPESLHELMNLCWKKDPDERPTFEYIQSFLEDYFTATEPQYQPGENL
Chain of WEE1, construct: aa215-end, human (P30291 215-646, looked up): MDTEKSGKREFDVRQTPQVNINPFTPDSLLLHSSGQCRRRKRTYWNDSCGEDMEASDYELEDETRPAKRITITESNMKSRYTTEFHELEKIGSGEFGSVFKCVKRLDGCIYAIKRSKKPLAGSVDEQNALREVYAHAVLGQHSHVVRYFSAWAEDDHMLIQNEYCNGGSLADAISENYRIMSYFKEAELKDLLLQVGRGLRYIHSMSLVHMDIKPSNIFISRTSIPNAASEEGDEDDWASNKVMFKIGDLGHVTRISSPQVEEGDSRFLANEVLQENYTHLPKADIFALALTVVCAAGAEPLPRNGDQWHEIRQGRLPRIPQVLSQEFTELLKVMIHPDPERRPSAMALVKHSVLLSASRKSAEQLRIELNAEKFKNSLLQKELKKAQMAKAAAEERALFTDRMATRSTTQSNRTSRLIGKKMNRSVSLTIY

WEE1, construct: aa215-end, human (from UniProt P30291)
relative phosphorylation
Conditions | at +1 | at +2 | at +3 | at +4 | at +5 | at -1 | at -2 | at -3 | at -4 | at -5
A fixed | 0.635 | 0.703 | 0.557 | 0.811 | 0.707 | 0.72 | 0.888 | 0.817 | 0.926 | 1.01
D fixed | 0.354 | 0.437 | 0.425 | 0.604 | 0.562 | 0.619 | 0.593 | 0.846 | 0.849 | 0.957
E fixed | 0.445 | 0.474 | 0.464 | 0.697 | 0.657 | 0.467 | 0.742 | 0.901 | 1.22 | 0.881
F fixed | 0.997 | 1.33 | 0.969 | 0.816 | 0.746 | 2.25 | 0.867 | 1.26 | 1.13 | 1.14
G fixed | 1.03 | 0.713 | 0.776 | 0.921 | 0.88 | 0.693 | 1.54 | 1.06 | 1.24 | 1.15
H fixed | 0.739 | 0.685 | 0.93 | 0.927 | 1.05 | 1.04 | 0.85 | 0.748 | 0.809 | 0.762
I fixed | 1 | 1.04 | 1.2 | 0.781 | 0.881 | 1.15 | 0.943 | 1.24 | 1.21 | 1.03
K fixed | 1.44 | 1.9 | 2.15 | 2 | 1.9 | 0.93 | 1.04 | 1.1 | 0.986 | 1.1
L fixed | 0.815 | 0.945 | 0.806 | 0.752 | 0.833 | 1.61 | 0.866 | 1.11 | 1.05 | 1.15
M fixed | 0.892 | 1.03 | 0.922 | 1.11 | 0.9 | 1.2 | 0.741 | 1.06 | 0.977 | 1.01
N fixed | 0.952 | 0.875 | 0.74 | 0.762 | 0.89 | 1.45 | 1 | 0.817 | 0.747 | 0.872
P fixed | 0.598 | 0.573 | 0.636 | 0.758 | 0.755 | 0.753 | 0.84 | 1 | 0.995 | 0.956
Q fixed | 0.913 | 0.856 | 0.772 | 0.98 | 0.804 | 0.564 | 0.733 | 0.691 | 0.945 | 0.88
R fixed | 4.18 | 2.37 | 3.44 | 2.25 | 2.98 | 0.975 | 1.54 | 1.21 | 1.47 | 1.15
V fixed | 0.819 | 0.941 | 0.93 | 0.751 | 0.675 | 1.11 | 0.924 | 1.12 | 0.907 | 1.02
W fixed | 0.904 | 1.37 | 0.896 | 1.23 | 0.812 | 1.17 | 0.897 | 1.22 | 1.18 | 1.37
pThr fixed | 0.975 | 0.775 | 0.584 | 0.671 | 0.815 | 0.866 | 1.12 | 1.3 | 0.896 | 1.06
pTyr fixed | 1.06 | 1.05 | 0.703 | 0.834 | 0.882 | 7.21 | 1.38 | 1.76 | 1.33 | 1.25

YES1, construct: Full length, human (from UniProt P07947)
relative phosphorylation
Conditions | at +1 | at +2 | at +3 | at +4 | at +5 | at -1 | at -2 | at -3 | at -4 | at -5
A fixed | 1.59 | 1.07 | 0.621 | 0.835 | 0.959 | 0.583 | 0.987 | 0.821 | 0.944 | 0.967
D fixed | 0.822 | 0.636 | 0.492 | 0.759 | 0.76 | 0.641 | 1.35 | 1.7 | 1.42 | 1.35
E fixed | 1.32 | 1.28 | 0.546 | 0.885 | 0.867 | 0.819 | 1.41 | 2.16 | 1.57 | 1.1
F fixed | 0.723 | 1.08 | 2.83 | 1.24 | 1.13 | 0.652 | 0.57 | 0.794 | 0.731 | 0.861
G fixed | 2.83 | 0.751 | 0.668 | 1.01 | 0.957 | 0.569 | 1.11 | 1.04 | 1.25 | 1.03
H fixed | 0.8 | 0.71 | 1 | 1.12 | 1.07 | 0.733 | 1.27 | 1.03 | 1.02 | 1.02
I fixed | 0.589 | 1.15 | 1.52 | 0.814 | 0.675 | 3.12 | 0.56 | 0.559 | 0.75 | 0.675
K fixed | 0.418 | 0.721 | 0.552 | 1.06 | 1.19 | 0.468 | 0.873 | 0.697 | 0.989 | 1.23
L fixed | 0.596 | 1.08 | 1.46 | 0.866 | 0.841 | 1.71 | 0.679 | 0.66 | 0.951 | 0.719
M fixed | 1.11 | 1.19 | 1.01 | 1.29 | 0.932 | 0.974 | 0.727 | 0.74 | 0.952 | 0.834
N fixed | 0.644 | 0.791 | 0.657 | 0.899 | 1.09 | 0.463 | 1.4 | 1.39 | 1.01 | 1.35
P fixed | 0.462 | 0.724 | 0.518 | 0.785 | 1.37 | 1.3 | 1.31 | 1.02 | 1.12 | 1.22
Q fixed | 0.897 | 1 | 0.599 | 1.17 | 1.01 | 0.521 | 1.18 | 1.15 | 1.09 | 1.1
R fixed | 0.538 | 0.951 | 0.913 | 1.36 | 1.51 | 0.399 | 0.95 | 0.76 | 1.01 | 1.16
S fixed | 1.13 | 1.3 | 0.672 | 0.938 | 1.07 | 0.518 | 1.31 | 1.08 | 0.846 | 0.949
T fixed | 1.08 | 1.44 | 0.908 | 1.01 | 1 | 1.51 | 0.968 | 0.862 | 0.727 | 0.908
V fixed | 0.892 | 1.3 | 1.37 | 0.842 | 0.749 | 2.26 | 0.663 | 0.558 | 0.857 | 0.783
W fixed | 1.54 | 0.815 | 1.67 | 1.11 | 0.821 | 0.766 | 0.69 | 0.979 | 0.762 | 0.755
pThr fixed | 1.21 | 1.33 | 0.497 | 0.667 | 0.674 | 1.07 | 1.1 | 1.13 | 1.07 | 1.17
pTyr fixed | 2.21 | 1.24 | 0.636 | 0.841 | 0.739 | 0.806 | 1.21 | 1.18 | 1.27 | 1.2
